Data: US20220033505A1 (Janssen / Centocor, published 2022)

B1: HC3B236 (CD3B450-LH-scFv-Fc x MHGB738-Fab-Fc) (bispecific antibody, human IgG1, kappa, L234A L235A)
scFv: QSALTQPASVSGSPGQSITISCTGTSSNIGTYKFVSWYQQHPGKAPKVMIYEVSKRPSGVSNRFSGSKSGNTASLTISGLQAEDEADYYCVSYAGSGTLLFGGGTKLTVLGGSEGKSSGSGSESKSTGGSQVQLQQSGPGLVKPSQTLSLTCAISGDSVFNNNAAWSWIRQSPSRGLEWLGRTYYRSKWLYDYAVSVKSRITINPDTSKNQFSLQLNSVTPEDTAVYYCARGYSSSFDYWGQGTLVTVSSEPKSSDKTHTCPPCPAPEAAGGPSVFLFPPKPKDTLMISRTPEVTCVVVSVSHEDPEVKFNWYVDGVEVHNAKTKPREEQYNSTYRVVSVLTVLHQDWLNGKEYKCKVSNKALPAPIEKTISKAKGQPREPQVYVYPPSREEMTKNQVSLTCLVKGFYPSDIAVEWESNGQPENNYKTTPPVLDSDGSFALVSKLTVDKSRWQQGNVFSCSVMHEALHNHYTQKSLSLSPG
heavy: QVQLQQSGPGLVKPSQTLSLTCAISGDSVSSNRAAWNWIRQSPSRGLEWLGRTYYRSKWYNDYAVSVKSRITINPDTSKNQISLQLNSVTPEDTAVYYCARVRPGIPFDYWGQGTPVTVSSASTKGPSVFPLAPSSKSTSGGTAALGCLVKDYFPEPVTVSWNSGALTSGVHTFPAVLQSSGLYSLSSVVTVPSSSLGTQTYICNVNHKPSNTKVDKKVEPKSCDKTHTCPPCPAPEAAGGPSVFLFPPKPKDTLMISRTPEVTCVVVSVSHEDPEVKFNWYVDGVEVHNAKTKPREEQYNSTYRVVSVLTVLHQDWLNGKEYKCKVSNKALPAPIEKTISKAKGQPREPQVYVLPPSREEMTKNQVSLLCLVKGFYPSDIAVEWESNGQPENNYLTWPPVLDSDGSFFLYSKLTVDKSRWQQGNVFSCSVMHEALHNHYTQKSLSLSPG
light: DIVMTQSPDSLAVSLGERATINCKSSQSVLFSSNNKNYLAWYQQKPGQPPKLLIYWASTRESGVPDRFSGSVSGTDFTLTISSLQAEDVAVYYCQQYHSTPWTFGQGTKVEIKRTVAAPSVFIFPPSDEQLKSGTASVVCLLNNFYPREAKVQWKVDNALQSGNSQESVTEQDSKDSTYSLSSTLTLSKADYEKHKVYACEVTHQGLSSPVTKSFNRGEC
B2: HC3B235 (CD3B219-LH-scFv-Fc x MHGB738-Fab-Fc) (bispecific antibody, human IgG1, kappa, L234A L235A)
scFv: QTVVTQEPSLTVSPGGTVTLTCRSSTGAVTTSNYANWVQQKPGQAPRGLIGGTNKRAPGTPARFSGSLLGGKAALTLSGVQPEDEAEYYCALWYSNLWVFGGGTKLTVLGGSEGKSSGSGSESKSTGGSEVQLVESGGGLVQPGGSLRLSCAASGFTFNTYAMNWVRQAPGKGLEWVARIRSKYNNYATYYAASVKGRFTISRDDSKNSLYLQMNSLKTEDTAVYYCVRHGNFGNSYVSWFAYWGQGTLVTVSSEPKSSDKTHTCPPCPAPEAAGGPSVFLFPPKPKDTLMISRTPEVTCVVVSVSHEDPEVKFNWYVDGVEVHNAKTKPREEQYNSTYRVVSVLTVLHQDWLNGKEYKCKVSNKALPAPIEKTISKAKGQPREPQVYVYPPSREEMTKNQVSLTCLVKGFYPSDIAVEWESNGQPENNYKTTPPVLDSDGSFALVSKLTVDKSRWQQGNVFSCSVMHEALHNHYTQKSLSLSPG
heavy: B1 heavy
light: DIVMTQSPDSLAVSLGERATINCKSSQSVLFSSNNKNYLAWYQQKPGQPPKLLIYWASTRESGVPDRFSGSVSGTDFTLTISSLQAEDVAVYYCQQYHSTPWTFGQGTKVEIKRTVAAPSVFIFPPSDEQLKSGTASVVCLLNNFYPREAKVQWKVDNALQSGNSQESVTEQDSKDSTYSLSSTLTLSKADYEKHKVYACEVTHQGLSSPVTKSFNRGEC
B3: HC3B231 (CD3B450-LH-scFv-Fc x MHGB732-Fab-Fc) (bispecific antibody, human IgG1, kappa, L234A L235A)
scFv: B1 scFv
heavy: QVQLQQSGPGLVKPSQTLSLTCAISGDSVSSNSAAWNWIRQSPSRGLEWLGRTYYRSKWYNDYAVSVKSRITINPDTSKNQISLQLNSVTPEDTAVYYCAGDRRYGIVGLPFAYWGQGTLVTVSSASTKGPSVFPLAPSSKSTSGGTAALGCLVKDYFPEPVTVSWNSGALTSGVHTFPAVLQSSGLYSLSSVVTVPSSSLGTQTYICNVNHKPSNTKVDKKVEPKSCDKTHTCPPCPAPEAAGGPSVFLFPPKPKDTLMISRTPEVTCVVVSVSHEDPEVKFNWYVDGVEVHNAKTKPREEQYNSTYRVVSVLTVLHQDWLNGKEYKCKVSNKALPAPIEKTISKAKGQPREPQVYVLPPSREEMTKNQVSLLCLVKGFYPSDIAVEWESNGQPENNYLTWPPVLDSDGSFFLYSKLTVDKSRWQQGNVFSCSVMHEALHNHYTQKSLSLSPG
light: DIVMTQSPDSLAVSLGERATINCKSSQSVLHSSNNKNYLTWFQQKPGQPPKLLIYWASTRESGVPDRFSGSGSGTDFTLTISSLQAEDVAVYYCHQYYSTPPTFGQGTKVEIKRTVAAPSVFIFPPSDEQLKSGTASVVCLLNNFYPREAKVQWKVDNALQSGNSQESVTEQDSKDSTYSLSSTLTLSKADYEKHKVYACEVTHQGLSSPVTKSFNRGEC
B4: HC3B232 (CD3W246-LH-scFv-Fc x MHGB732-Fab-Fc) (bispecific antibody, human IgG1, kappa, L234A L235A)
scFv: DIQMTQSPSSLSASVGDRVTITCRARQSIGTAIHWYQQKPGKAPKLLIKYASESISGVPSRFSGSGSGTDFTLTISSVQPEDFATYYCQQSGSWPYTFGQGTKLEIKGGSEGKSSGSGSESKSTGGSEVQLVESGGGLVKPGGSLRLSCAASGFTFSRYNMNWVRQAPGKGLEWVSSISTSSNYIYYADSVKGRFTFSRDNAKNSLDLQMSGLRAEDTAIYYCTRGWGPFDYWGQGTLVTVSSEPKSSDKTHTCPPCPAPEAAGGPSVFLFPPKPKDTLMISRTPEVTCVVVSVSHEDPEVKFNWYVDGVEVHNAKTKPREEQYNSTYRVVSVLTVLHQDWLNGKEYKCKVSNKALPAPIEKTISKAKGQPREPQVYVYPPSREEMTKNQVSLTCLVKGFYPSDIAVEWESNGQPENNYKTTPPVLDSDGSFALVSKLTVDKSRWQQGNVFSCSVMHEALHNHYTQKSLSLSPGK
heavy: B3 heavy
light: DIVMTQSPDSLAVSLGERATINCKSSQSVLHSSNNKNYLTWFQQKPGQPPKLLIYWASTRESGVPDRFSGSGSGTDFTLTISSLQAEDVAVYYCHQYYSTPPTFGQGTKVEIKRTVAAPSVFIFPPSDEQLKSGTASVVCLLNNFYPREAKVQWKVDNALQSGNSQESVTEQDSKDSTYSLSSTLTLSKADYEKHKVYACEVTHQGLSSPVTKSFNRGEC
B5: HC3B230 (CD3B219-LH-scFv-Fc x MHGB732-Fab-Fc) (bispecific antibody, human IgG1, kappa, L234A L235A)
scFv: B2 scFv
heavy: B3 heavy
light: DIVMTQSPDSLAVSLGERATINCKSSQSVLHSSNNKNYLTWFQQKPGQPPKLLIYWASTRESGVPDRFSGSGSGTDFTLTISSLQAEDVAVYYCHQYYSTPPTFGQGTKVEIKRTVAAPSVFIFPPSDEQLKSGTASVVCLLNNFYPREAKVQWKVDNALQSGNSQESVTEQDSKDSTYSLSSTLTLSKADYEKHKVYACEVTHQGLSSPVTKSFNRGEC
B6: HC3B125 (CD3B376-Fab-Fc x MHGB732-LH-scFv-Fc, no C-terminal Lys) (bispecific antibody, human IgG1, lambda, L234A L235A)
heavy: QVQLQQSGPRLVRPSQTLSLTCAISGDSVFNNNAAWSWIRQSPSRGLEWLGRTYYRSKWLYDYAVSVKSRITVNPDTSRNQFTLQLNSVTPEDTALYYCARGYSSSFDYWGQGTLVTVSSASTKGPSVFPLAPSSKSTSGGTAALGCLVKDYFPEPVTVSWNSGALTSGVHTFPAVLQSSGLYSLSSVVTVPSSSLGTQTYICNVNHKPSNTKVDKKVEPKSCDKTHTCPPCPAPEAAGGPSVFLFPPKPKDTLMISRTPEVTCVVVSVSHEDPEVKFNWYVDGVEVHNAKTKPREEQYNSTYRVVSVLTVLHQDWLNGKEYKCKVSNKALPAPIEKTISKAKGQPREPQVYVYPPSREEMTKNQVSLTCLVKGFYPSDIAVEWESNGQPENNYKTTPPVLDSDGSFALVSKLTVDKSRWQQGNVFSCSVMHEALHNHYTQKSLSLSPG
light: QSALTQPASVSGSPGQSITISCTGTSSNIGTYKFVSWYQQHPDKAPKVLLYEVSKRPSGVSSRFSGSKSGNTASLTISGLQAEDQADYHCVSYAGSGTLLFGGGTKLTVLGQPKAAPSVTLFPPSSEELQANKATLVCLISDFYPGAVTVAWKADSSPVKAGVETTTPSKQSNNKYAASSYLSLTPEQWKSHRSYSCQVTHEGSTVEKTVAPTECS
scFv: DIVMTQSPDSLAVSLGERATINCKSSQSVLHSSNNKNYLTWFQQKPGQPPKLLIYWASTRESGVPDRFSGSGSGTDFTLTISSLQAEDVAVYYCHQYYSTPPTFGQGTKVEIKGGSEGKSSGSGSESKSTGGSQVQLQQSGPGLVKPSQTLSLTCAISGDSVSSNSAAWNWIRQSPSRGLEWLGRTYYRSKWYNDYAVSVKSRITINPDTSKNQISLQLNSVTPEDTAVYYCAGDRRYGIVGLPFAYWGQGTLVTVSSEPKSSDKTHTCPPCPAPEAAGGPSVFLFPPKPKDTLMISRTPEVTCVVVSVSHEDPEVKFNWYVDGVEVHNAKTKPREEQYNSTYRVVSVLTVLHQDWLNGKEYKCKVSNKALPAPIEKTISKAKGQPREPQVYVLPPSREEMTKNQVSLLCLVKGFYPSDIAVEWESNGQPENNYLTWPPVLDSDGSFFLYSKLTVDKSRWQQGNVFSCSVMHEALHNHYTQKSLSLSPG
B7: HC3B124 (CD3B219-Fab-Fc x MHGB732-scFv-Fc) (bispecific antibody, human IgG1, lambda, L234A L235A)
heavy: EVQLVESGGGLVQPGGSLRLSCAASGFTFNTYAMNWVRQAPGKGLEWVARIRSKYNNYATYYAASVKGRFTISRDDSKNSLYLQMNSLKTEDTAVYYCVRHGNFGNSYVSWFAYWGQGTLVTVSSASTKGPSVFPLAPSSKSTSGGTAALGCLVKDYFPEPVTVSWNSGALTSGVHTFPAVLQSSGLYSLSSVVTVPSSSLGTQTYICNVNHKPSNTKVDKKVEPKSCDKTHTCPPCPAPEAAGGPSVFLFPPKPKDTLMISRTPEVTCVVVSVSHEDPEVKFNWYVDGVEVHNAKTKPREEQYNSTYRVVSVLTVLHQDWLNGKEYKCKVSNKALPAPIEKTISKAKGQPREPQVYVYPPSREEMTKNQVSLTCLVKGFYPSDIAVEWESNGQPENNYKTTPPVLDSDGSFALVSKLTVDKSRWQQGNVFSCSVMHEALHNHYTQKSLSLSPG
light: QTVVTQEPSLTVSPGGTVTLTCRSSTGAVTTSNYANWVQQKPGQAPRGLIGGTNKRAPGTPARFSGSLLGGKAALTLSGVQPEDEAEYYCALWYSNLWVFGGGTKLTVLGQPKAAPSVTLFPPSSEELQANKATLVCLISDFYPGAVTVAWKADSSPVKAGVETTTPSKQSNNKYAASSYLSLTPEQWKSHRSYSCQVTHEGSTVEKTVAPTECS
scFv: B6 scFv
B8: HC3B123 (CD3W246-Fab-Fc x MHGB732-LH-scFv-Fc) (bispecific antibody, human IgG1, kappa, L234A L235A)
heavy: EVQLVESGGGLVKPGGSLRLSCAASGFTFSRYNMNWVRQAPGKGLEWVSSISTSSNYIYYADSVKGRFTFSRDNAKNSLDLQMSGLRAEDTAIYYCTRGWGPFDYWGQGTLVTVSSASTKGPSVFPLAPSSKSTSGGTAALGCLVKDYFPEPVTVSWNSGALTSGVHTFPAVLQSSGLYSLSSVVTVPSSSLGTQTYICNVNHKPSNTKVDKKVEPKSCDKTHTCPPCPAPEAAGGPSVFLFPPKPKDTLMISRTPEVTCVVVSVSHEDPEVKFNWYVDGVEVHNAKTKPREEQYNSTYRVVSVLTVLHQDWLNGKEYKCKVSNKALPAPIEKTISKAKGQPREPQVYVYPPSREEMTKNQVSLTCLVKGFYPSDIAVEWESNGQPENNYKTTPPVLDSDGSFALVSKLTVDKSRWQQGNVFSCSVMHEALHNHYTQKSLSLSPGK
light: DIQMTQSPSSLSASVGDRVTITCRARQSIGTAIHWYQQKPGKAPKLLIKYASESISGVPSRFSGSGSGTDFTLTISSVQPEDFATYYCQQSGSWPYTFGQGTKLEIKRTVAAPSVFIFPPSDEQLKSGTASVVCLLNNFYPREAKVQWKVDNALQSGNSQESVTEQDSKDSTYSLSSTLTLSKADYEKHKVYACEVTHQGLSSPVTKSFNRGEC
scFv: B6 scFv

Target: HLA-G on NCI-H2009-b2m target cells (human, UniProt P17693 25-338)
Test: cell-based or functional assay

Binder	Cytotoxicity, EC50 (M); T cell-mediated cytotoxicity against NCI-H2009-b2m cells, 72 hr, E:T 3:1 [M]
B1	4.54e-09
B2	8.37e-11
B3	1.26e-10
B4	6.77e-12
B5	9.92e-12
B6	5.65e-11
B7	3.85e-12
B8	3.24e-12
